{"source": "paper PMC3113550", "experiment_in_all_cases": "AUC", "key": {"[1]": {"biological_target": "Mouse E-cadherin EC1-2 E11D (mouse)"}, "[2]": {"biological_target": "Mouse E-cadherin EC1-2 P5A (mouse)"}, "[3]": {"biological_target": "Mouse E-cadherin EC1-2 P5A P6A (mouse)"}, "[4]": {"biological_target": "Mouse E-cadherin EC1-2 P5G P6G (mouse)"}, "[5]": {"biological_target": "Mouse E-cadherin EC1-2 P5S P6S (mouse)"}, "[6]": {"biological_target": "Mouse E-cadherin EC1-2 P6A (mouse)"}, "[7]": {"biological_target": "Mouse E-cadherin EC1-2 W2F (mouse)"}, "[8]": {"biological_target": "Mouse E-cadherin EC1-2 wild-type (mouse)"}, "[9]": {"biological_target": "Mouse E-cadherin EC1-2 with one alanine inserted between residues 2 and 3 (mouse)"}, "[10]": {"biological_target": "Mouse E-cadherin EC1-2 with two alanines inserted between residues 2 and 3 (mouse)"}, "[11]": {"biological_target": "Mouse E-cadherin EC2-3 F108W del-TQE (mouse)"}, "[12]": {"biological_target": "Mouse N-cadherin EC1-2 P5A P6A (mouse)"}, "[13]": {"biological_target": "Mouse N-cadherin EC1-2 wild type (mouse)"}, "[14]": {"biological_target": "Mouse cadherin-11 EC1-2 F8A (mouse)"}, "[15]": {"biological_target": "Mouse cadherin-11 EC1-2 wild type (mouse)"}}, "data": [{"substance": "Mouse E-cadherin EC1-2 E11D (domain or fragment)", "values": [{"measurement": "Kd", "setting": "[1]", "value": 71.2, "unit": "µM"}]}, {"substance": "Mouse E-cadherin EC1-2 P5A (domain or fragment)", "values": [{"measurement": "Kd", "setting": "[2]", "value": 2.9, "unit": "µM"}]}, {"substance": "Mouse E-cadherin EC1-2 P5A P6A (domain or fragment)", "values": [{"measurement": "Kd", "setting": "[3]", "value": 3.7, "unit": "µM"}]}, {"substance": "Mouse E-cadherin EC1-2 P5G P6G (domain or fragment)", "values": [{"measurement": "Kd", "setting": "[4]", "value": 2.7, "unit": "µM"}]}, {"substance": "Mouse E-cadherin EC1-2 P5S P6S (domain or fragment)", "values": [{"measurement": "Kd", "setting": "[5]", "value": 2.9, "unit": "µM"}]}, {"substance": "Mouse E-cadherin EC1-2 P6A (domain or fragment)", "values": [{"measurement": "Kd", "setting": "[6]", "value": 4.8, "unit": "µM"}]}, {"substance": "Mouse E-cadherin EC1-2 W2F (domain or fragment)", "values": [{"measurement": "Kd", "setting": "[7]", "value": 246, "unit": "µM"}]}, {"substance": "Mouse E-cadherin EC1-2 wild-type (domain or fragment)", "values": [{"measurement": "Kd", "setting": "[8]", "value": 96.5, "unit": "µM"}]}, {"substance": "Mouse E-cadherin EC1-2 with one alanine inserted between residues 2 and 3 (domain or fragment)", "values": [{"measurement": "Kd", "setting": "[9]", "value": 1520, "unit": "µM"}]}, {"substance": "Mouse E-cadherin EC1-2 with two alanines inserted between residues 2 and 3 (domain or fragment)", "values": [{"measurement": "Kd", "setting": "[10]", "value": 195, "unit": "µM"}]}, {"substance": "Mouse E-cadherin EC2-3 F108W del-TQE (domain or fragment)", "values": [{"measurement": "Kd", "setting": "[11]", "value": 46.5, "unit": "µM"}]}, {"substance": "Mouse N-cadherin EC1-2 P5A P6A (domain or fragment)", "values": [{"measurement": "Kd", "setting": "[12]", "value": 3.6, "unit": "µM"}]}, {"substance": "Mouse N-cadherin EC1-2 wild type (domain or fragment)", "values": [{"measurement": "Kd", "setting": "[13]", "value": 25.8, "unit": "µM"}]}, {"substance": "Mouse cadherin-11 EC1-2 F8A (domain or fragment)", "values": [{"measurement": "Kd", "setting": "[14]", "value": 3.7, "unit": "µM"}]}, {"substance": "Mouse cadherin-11 EC1-2 wild type (domain or fragment)", "values": [{"measurement": "Kd", "setting": "[15]", "value": 25.2, "unit": "µM"}]}]}
